Laboratory results as given in article PMC3616122, “Crystal Structure of KLHL3 in Complex with Cullin3” (PLoS ONE, 2013).

Key:
[1] = target: the molecule itself; assay: SEC; Superdex S75 in buffer A (20 mM Tris pH 7.5, 150 mM NaCl, 1 mM TCEP, 10% v/v glycerol), elution monitored at 280 nm; proteins alone and an equimolar mixture
[2] = target: T1, Cul3^NTD, N-terminal domain of Cullin3 residues 20-381 with stabilizing mutations I342R/L346D (human, UniProt Q13618 20-381, I342R | L346D); assay: ITC; VP-ITC at 25°C in buffer A; KLHL3^BTB-BACK at 150 µM injected into Cul3^NTD at 15 µM; one-site binding model; a single titration for each protein; settings: both partners purified
T1 construct: residues 26-379 are in the final model; also called Cul3 N-terminal domain; source: E. coli BL21 DE3 Codon+, purified (NiNTA, TEV cleavage, Superdex S75 SEC); not shown: thioredoxin, N-terminal, cleaved; His tag, N-terminal, cleaved
T1 sequence (Q13618 20-381 I342R/L346D): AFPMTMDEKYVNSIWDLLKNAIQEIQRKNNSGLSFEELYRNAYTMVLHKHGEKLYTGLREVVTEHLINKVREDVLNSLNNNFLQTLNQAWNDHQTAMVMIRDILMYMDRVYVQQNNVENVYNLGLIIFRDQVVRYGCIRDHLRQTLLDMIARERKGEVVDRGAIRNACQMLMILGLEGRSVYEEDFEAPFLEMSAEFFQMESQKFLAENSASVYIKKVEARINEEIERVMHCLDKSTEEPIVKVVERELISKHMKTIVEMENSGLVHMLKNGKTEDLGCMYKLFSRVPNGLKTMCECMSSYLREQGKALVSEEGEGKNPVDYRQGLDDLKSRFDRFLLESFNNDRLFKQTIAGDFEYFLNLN

[3] = target: T1, Cul3^NTD, N-terminal domain of Cullin3 …; assay: crystal structure; KLHL3^BTB-BACK (SER version) and Cul3^NTD mixed 1:1 at 10 mg/ml total; hanging drop, 0.1 M sodium tartrate, 17% w/v PEG 3350, room temperature; 3.5 Å; one chain of each in the asymmetric unit, BTB homodimer by a crystallographic 2-fold; settings: both partners purified
[4] = target: the molecule itself; assay: as above

Kd [2] | Binder | stoichiometry N [1] | also measured
0.108 µM | KLHL3^BTB-BACK, human KLHL3 residues 27-276, wild type (domain or fragment, UniProt Q9UH77 27-276, looked up, KLHL3, human, residues 27-276 (BTB and BACK domains), without the surface entropy reduction mutations; PDB 4HXI holds the same limits with K87A/K89A/K90A; Removal of the His tag is told only for Cul3^NTD; also called wild-type KLHL3^BTB-BACK; source: E. coli BL21 DE3 Codon+, purified (NiNTA, Superdex S75 SEC)) TVNPAHMGKAFKVMNELRSKQLLCDVMIVAEDVEIEAHRVVLAACSPYFCAMFTGDMSESKAKKIEIKDVDGQTLSKLIDYIYTAEIEVTEENVQVLLPAASLLQLMDVRQNCCDFLQSQLHPTNCLGIRAFADVHTCTDLLQQANAYAEQHFPEVMLGEEFLSLSLDQVCSLISSDKLTVSSEEKVFEAVISWINYEKETRLEHMAKLMEHVRLPLLPRDYLVQTVEEEALIKNNNTCKDFLIEAMKYH | 2 | stoichiometry N [2]: 1
– | KLHL3^BTB-BACK E85A (PHAII mutation) (domain or fragment, human, UniProt Q9UH77 27-276, looked up, KLHL3, human, residues 27-276, PHAII patient mutation E85A introduced into the wild-type KLHL3^BTB-BACK plasmid; PDB 4HXI holds the same limits with K87A/K89A/K90A and without E85A; source: E. coli BL21 DE3 Codon+, purified (NiNTA, Superdex S75 SEC)) TVNPAHMGKAFKVMNELRSKQLLCDVMIVAEDVEIEAHRVVLAACSPYFCAMFTGDMSASKAKKIEIKDVDGQTLSKLIDYIYTAEIEVTEENVQVLLPAASLLQLMDVRQNCCDFLQSQLHPTNCLGIRAFADVHTCTDLLQQANAYAEQHFPEVMLGEEFLSLSLDQVCSLISSDKLTVSSEEKVFEAVISWINYEKETRLEHMAKLMEHVRLPLLPRDYLVQTVEEEALIKNNNTCKDFLIEAMKYH | 2 | –
– | KLHL3^BTB-BACK M78V (PHAII mutation) (domain or fragment, human, UniProt Q9UH77 27-276, looked up, KLHL3, human, residues 27-276, PHAII patient mutation M78V introduced into the wild-type KLHL3^BTB-BACK plasmid; PDB 4HXI holds the same limits with K87A/K89A/K90A and without M78V; source: E. coli BL21 DE3 Codon+, purified (NiNTA, Superdex S75 SEC)) TVNPAHMGKAFKVMNELRSKQLLCDVMIVAEDVEIEAHRVVLAACSPYFCAVFTGDMSESKAKKIEIKDVDGQTLSKLIDYIYTAEIEVTEENVQVLLPAASLLQLMDVRQNCCDFLQSQLHPTNCLGIRAFADVHTCTDLLQQANAYAEQHFPEVMLGEEFLSLSLDQVCSLISSDKLTVSSEEKVFEAVISWINYEKETRLEHMAKLMEHVRLPLLPRDYLVQTVEEEALIKNNNTCKDFLIEAMKYH | 2 | –
– | KLHL3^BTB-BACK A77E (PHAII mutation) (domain or fragment, human, UniProt Q9UH77 27-276, looked up, KLHL3, human, residues 27-276, PHAII patient mutation A77E introduced into the wild-type KLHL3^BTB-BACK plasmid; PDB 4HXI holds the same limits with K87A/K89A/K90A and without A77E; source: E. coli BL21 DE3 Codon+, purified (NiNTA, Superdex S75 SEC)) TVNPAHMGKAFKVMNELRSKQLLCDVMIVAEDVEIEAHRVVLAACSPYFCEMFTGDMSESKAKKIEIKDVDGQTLSKLIDYIYTAEIEVTEENVQVLLPAASLLQLMDVRQNCCDFLQSQLHPTNCLGIRAFADVHTCTDLLQQANAYAEQHFPEVMLGEEFLSLSLDQVCSLISSDKLTVSSEEKVFEAVISWINYEKETRLEHMAKLMEHVRLPLLPRDYLVQTVEEEALIKNNNTCKDFLIEAMKYH | 2 | –
– | KLHL3^BTB-BACK, human KLHL3 residues 27-276, surface entropy reduction version K87A/K89A/K90A used in crystallization (domain or fragment, UniProt Q9UH77 27-276, looked up, KLHL3, human, residues 27-276 (BTB and BACK domains) with three lysines mutated to alanine for crystallization; residues 32-223 are in the final model; also called KLHL3^BTB-BACK (SER); source: E. coli BL21 DE3 Codon+, purified (NiNTA, Superdex S75 SEC)) TVNPAHMGKAFKVMNELRSKQLLCDVMIVAEDVEIEAHRVVLAACSPYFCAMFTGDMSESAAAAIEIKDVDGQTLSKLIDYIYTAEIEVTEENVQVLLPAASLLQLMDVRQNCCDFLQSQLHPTNCLGIRAFADVHTCTDLLQQANAYAEQHFPEVMLGEEFLSLSLDQVCSLISSDKLTVSSEEKVFEAVISWINYEKETRLEHMAKLMEHVRLPLLPRDYLVQTVEEEALIKNNNTCKDFLIEAMKYH | – | binding result [3]: binds; binding result [4]: binds
4.1 µM | KLHL3^BTB-BACK C164F (PHAII mutation) (domain or fragment, human, UniProt Q9UH77 27-276, looked up, KLHL3, human, residues 27-276, PHAII patient mutation C164F introduced into the wild-type KLHL3^BTB-BACK plasmid; PDB 4HXI holds the same limits with K87A/K89A/K90A and without C164F; source: E. coli BL21 DE3 Codon+, purified (NiNTA, Superdex S75 SEC)) TVNPAHMGKAFKVMNELRSKQLLCDVMIVAEDVEIEAHRVVLAACSPYFCAMFTGDMSESKAKKIEIKDVDGQTLSKLIDYIYTAEIEVTEENVQVLLPAASLLQLMDVRQNCCDFLQSQLHPTNCLGIRAFADVHTFTDLLQQANAYAEQHFPEVMLGEEFLSLSLDQVCSLISSDKLTVSSEEKVFEAVISWINYEKETRLEHMAKLMEHVRLPLLPRDYLVQTVEEEALIKNNNTCKDFLIEAMKYH | 2 | –
